Test results from article PMC5138414, “Structural Basis for Redox Regulation of Cytoplasmic and Chloroplastic Triosephosphate Isomerases from Arabidopsis thaliana” (Frontiers in Plant Science, 2016).

Substrate: O=CC(O)COP(=O)(O)O
Experiment: purified protein
Assay type: biochemical, Arabidopsis thaliana
Details: G3P to DHAP direction, 0-4.0 mM G3P (DL-G3P supplied), TEA pH 7.4, 10 mM EDTA, 0.01% BSA, 0.2 mM NADH, apparent constant

B1: cTPI (Arabidopsis thaliana) (protein)
chain: MARKFFVGGNWKCNGTAEEVKKIVNTLNEAQVPSQDVVEVVVSPPYVFLPLVKSTLRSDFFVAAQNCWVKKGGAFTGEVSAEMLVNLDIPWVILGHSERRAILNESSEFVGDKVAYALAQGLKVIACVGETLEEREAGSTMDVVAAQTKAIADRVTNWSNVVIAYEPVWAIGTGKVASPAQAQEVHDELRKWLAKNVSADVAATTRIIYGGSVNGGNCKELGGQADVDGFLVGGASLKPEFIDIIKAAEVKKSA
notes: homodimer
- Km: 480 ± 50 µM
- kcat: 2560 ± 43.9 s⁻¹
- kcat/Km: 5.34e+06 M⁻¹ s⁻¹

B2: pdTPI (Arabidopsis thaliana) (protein)
chain: MAGSGKFFVGGNWKCNGTKDSIAKLISDLNSATLEADVDVVVSPPFVYIDQVKSSLTDRIDISGQNSWVGKGGAFTGEISVEQLKDLGCKWVILGHSERRHVIGEKDEFIGKKAAYALSEGLGVIACIGEKLEEREAGKTFDVCFAQLKAFADAVPSWDNIVVAYEPVWAIGTGKVASPQQAQEVHVAVRGWLKKNVSEEVASKTRIIYGGSVNGGNSAELAKEEDIDGFLVGGASLKGPEFATIVNSVTSKKVAA
notes: homodimer
- Km: 400 ± 20 µM
- kcat: 2340 ± 41.6 s⁻¹
- kcat/Km: 5.84e+06 M⁻¹ s⁻¹
